The target of experiment [1] is T1, human DLL4, full length, overexpressed on cells (human, UniProt Q9NR61 27-685).
T1 construct: CHO cells in FMAT, HEK293 cells in the reporter assay; also called hDLL4; CHO-hDLL4
Description: FMAT, hNotch1-Fc on CHO-hDLL4, -HSA.

Experiment [2] deals with T1, human DLL4, full length, overexpressed …. Description: FMAT, hNotch1-Fc on CHO-hDLL4, +25 uM HSA.
Experiment [3] deals with T2, VEGF (used to stimulate HUVEC cells) (UniProt P15692-4 27-191, limits assumed). Description: cell-based or functional assay.
Experiment [4] concerns the target T3, recombinant human VEGF165 (human, UniProt P15692-4 27-191, biotinylated in the competition assays).
T3 construct: Bought protein; also called hVEGF165; rhVEGF165
Description: binding ELISA, coated rhVEGF165. A general note: ELISA stands for enzyme-linked immunosorbent assay.
Target sequence in this assay (P15692 other isoform, or with tags, fused parts or gaps): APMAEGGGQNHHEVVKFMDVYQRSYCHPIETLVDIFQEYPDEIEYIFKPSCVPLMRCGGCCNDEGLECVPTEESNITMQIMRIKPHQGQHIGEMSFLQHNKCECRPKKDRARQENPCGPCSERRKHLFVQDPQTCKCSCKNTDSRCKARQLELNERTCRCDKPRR

For experiment [5], the target named is T4, recombinant human VEGF121 (human, UniProt P15692-9 27-147).
T4 construct: also called rhVEGF121
T4 sequence (looked up): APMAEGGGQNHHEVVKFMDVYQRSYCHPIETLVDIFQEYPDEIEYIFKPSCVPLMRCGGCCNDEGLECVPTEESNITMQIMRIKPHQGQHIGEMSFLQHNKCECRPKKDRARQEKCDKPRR
Description: binding ELISA, coated rhVEGF121. As for the experimental part: Binding to recombinant human VEGF121 is assessed via a solid phase binding ELISA. […] Wells are blocked with a casein solution (1% in PBS).

Experiment [6] concerns the target T3, recombinant human VEGF165. Description: ELISA, hVEGF165/hVEGFR2-Fc competition. More on the design: % inhibition: concentration or dose not given beside the values.
Experiment [7] concerns the target T3, recombinant human VEGF165. Description: AlphaScreen, hVEGF165/hVEGFR1-Fc competition. On the procedure: (§1) Finally, streptavidin donor beads (20 μg/ml) are added and after 1 hour of incubation in the dark, fluorescence is measured on the Envision microplate reader.
Target sequence in this assay (P15692 other isoform, or with tags, fused parts or gaps): as the sequence (P15692 other isoform, or with tags, fused parts or gaps) above
For experiment [8], the target named is T3, recombinant human VEGF165. Description: AlphaScreen, hVEGF165/hVEGFR2-Fc competition. On the procedure:
as §1
A general note: Alpha assays give light when donor and acceptor beads are brought close together.
Target sequence in this assay (P15692 other isoform, or with tags, fused parts or gaps): as the sequence (P15692 other isoform, or with tags, fused parts or gaps) above

Experiment [9] addresses T3, recombinant human VEGF165. Description: AlphaScreen, hVEGF165/hVEGFR2-Fc competition. The arrangement: % inhibition: concentration or dose not given beside the values. As for the experimental part:
as §1

In experiment [10] the target is T3, recombinant human VEGF165. Description: AlphaScreen, hVEGF165/hVEGFR1-Fc competition. The arrangement: % inhibition: concentration or dose not given beside the values. On the procedure: as §1
Target sequence in this assay (P15692 other isoform, or with tags, fused parts or gaps): as the sequence (P15692 other isoform, or with tags, fused parts or gaps) above
Experiment [11] deals with T3, recombinant human VEGF165. Description: SPR Biacore, immobilised hVEGF165, two state reaction model. On the procedure: Samples are injected for 2 min and allowed to dissociate up to 20 min at a flow rate of 45 μl/min. In between sample injections, the chip surface is regenerated with 100 mM HCl. HBS-EP+(Hepes buffer pH7.4+EDTA) is used as running buffer. Binding curves are fitted using a Two State Reaction model by Biacore T100 Evaluation Software v2.0.1.
^{(a)}KD = kd1/kₐ₁ * (kd2/(kd2 + kₐ₂)) ^{(b)}Curves are fitted using a Two State Reaction model by Biacore T100 Evaluation Software v2.0.1
(Surface plasmon resonance follows binding to a sensor surface in real time, without labels.)
Target sequence in this assay (P15692 other isoform, or with tags, fused parts or gaps): as the sequence (P15692 other isoform, or with tags, fused parts or gaps) above

In experiment [12] the target is T5, recombinant mouse VEGF164 (mouse, UniProt Q00731-2 27-190, biotinylated as the labelled ligand of the mVEGF164/mVEGFR2 AlphaScreen).
T5 construct: also called mVEGF164; rmVEGF164
T5 sequence (looked up): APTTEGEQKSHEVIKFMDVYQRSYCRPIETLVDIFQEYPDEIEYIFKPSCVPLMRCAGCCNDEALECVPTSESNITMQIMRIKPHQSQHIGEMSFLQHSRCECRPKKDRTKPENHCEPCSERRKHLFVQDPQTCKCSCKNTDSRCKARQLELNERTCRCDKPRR
Description: binding ELISA on coated recombinant mouse VEGF164 (Example 12.6), OD 450 nm. As for the experimental part:
Cross-reactivity to mouse VEGF164 is determined using a binding ELISA. […] Wells are blocked with a casein solution (1% in PBS). […] A mouse VEGF164 reactive mAb is included as positive control.

Experiment [13] addresses T3, recombinant human VEGF165. Description: AlphaScreen, hVEGF165/hVEGFR1-Fc competition, -HSA.
The target of experiment [14] is T3, recombinant human VEGF165. Description: AlphaScreen, hVEGF165/hVEGFR2-Fc competition, -HSA.
Experiment [15] addresses T3, recombinant human VEGF165. Description: AlphaScreen, hVEGF165/hVEGFR2-Fc competition, +5 uM HSA. On the procedure: These 2 competition assays are also performed after preincubation of the VHHs with 5 μM human serum albumin.
The target in experiment [16] is T2, VEGF (used to stimulate HUVEC cells). Description: cell-based or functional assay. This is another data set of the same source.
Experiment [17] concerns the target T3, recombinant human VEGF165. Description: ELISA, hVEGF165/hVEGFR1-Fc competition. The arrangement: % inhibition: concentration or dose not given beside the values.
Target sequence in this assay (P15692 other isoform, or with tags, fused parts or gaps): as the sequence (P15692 other isoform, or with tags, fused parts or gaps) above

T2 sequence (P15692 other isoform, or with tags, fused parts or gaps limits assumed): as the sequence (P15692 other isoform, or with tags, fused parts or gaps) above

B1: DLLBII101G08 (VHH, not shown: small tags and cut ends)
VHH: EVQLVESGGGLVQAGGSLRLSCAASGRTFSSYAMAWFRQAPGKEREFVAAIRWSGGTAYYADSVQGRFTISRDNAKNTVYLQMNSLKPEDTAVYYCANRAADTRLGPYEYDYWGQGTQVTVSS
notes: Anti-DLL4 VHH; also called 101G8
For the molecule B1, the concentration for half-maximal inhibition (IC50) came to 31 nM in [1] and 30.1 nM in experiment [2].

B2: VEGFBII025 (VHH, not shown: small tags and cut ends)
chain: EVQLVESGGGLVQAGGSLRLSCAASGRTFSNYAMGWFRQAPGKERVLVADISSSGINTYVADAVKGRFTISRDNAKNTVYLQMNSLKPEDTAVYYCAASAWWYSQMARDNYRYWGQGTQVTVSSGGGGSGGGGSGGGGSGGGGSGGGGSGGGGSGGGGSGGGGSEVQLVESGGGLVQTGDSLRLSCEVSGRTFSSYSMGWFRQAQGKEREFVVAISKGGYKYDSVSLEGRFTISKDNAKNTVYLQINSLKPEDTAVYYCASSRAYGSSRLRLADTYEYWGQGTQVTVSS
notes: Bivalent anti-VEGF VHH; also called VEGFBII10E07-40GS-23B04
With B2, in [3], the “% inhibition, VEGF HUVEC Erk phosphorylation assay” value was found to be 99% and the “IC50, VEGF HUVEC Erk phosphorylation assay” value was found to be 0.23 nM. Further, the EC50 in [4] turned out to be 0.668 nM. Also, in experiment [5], the EC50 stood at 0.475 nM. Moreover, in experiment [6], the “% inhibition” value stood at 100% and the IC50 came to 0.577 nM. Further, in [7], the “% inhibition” value stood at 82% and the 50% inhibitory concentration (IC50) amounted to 0.039 nM. The IC50 in experiment [8] stood at 0.051 nM. Also, in [9], the “% inhibition” value was 100% and the IC50 was 0.051 nM. Further, in experiment [10], the “% inhibition” value was determined as 82% and the IC50 was determined as 0.071 nM. In addition, in [11], the dissociation constant (Kd) is 1.1 nM, the ka1 amounted to 330000 M⁻¹ s⁻¹, the ka2 was 0.018 s⁻¹ and the kd1 came to 0.017 s⁻¹. The kd2 in experiment [11] was 0.00037 s⁻¹. In [12], the binding result was “binds”.

B3: VEGFDLLBII001 (bispecific antibody)
chain: EVQLVESGGGLVQAGGSLRLSCAASGRTFSSYAMAWFRQAPGKEREFVAAIRWSGGTAYYADSVQGRFTISRDNAKNTVYLQMNSLKPEDTAVYYCANRAADTRLGPYEYDYWGQGTQVTVSSGGGGSGGGGSGGGGCGGGGSGGGGSGGGGSGGGGSEVQLVESGGGLVQTGDSLRLSCEVSGRTFSSYSMGWFRQAQGKEREFVVAISKGGYKYDSVSLEGRFTISKDNAKNTVYLQINSLKPEDTAVYYCASSRAYGSSRLRLADTYEYWGQGTQVTVSS
modifications: PEGylated at the Cys at position 15 of the 35 Gly-Ser linker
notes: DLLBII101G08 - 35GS(Cys15) - VEGFBII23B04
Take B3: the 50% inhibitory concentration (IC50) in experiment [1] worked out at 128 nM; in experiment [2], 122 nM; in [13], 1.58 nM; in [14] it was 0.64 nM; in experiment [15], 0.64 nM. Further, the results for the “% inh” value in experiment [13], in [14] and in experiment [15] were 69%, 100% and 100%, respectively.

B4: VEGFBII024 (VHH, not shown: small tags and cut ends)
chain: EVQLVESGGGLVQTGDSLRLSCEVSGRTFSSYSMGWFRQAQGKEREFVVAISKGGYKYDSVSLEGRFTISKDNAKNTVYLQINSLKPEDTAVYYCASSRAYGSSRLRLADTYEYWGQGTQVTVSSGGGGSGGGGSGGGGSGGGGSGGGGSGGGGSGGGGSGGGGSEVQLVESGGGLVQAGGSLRLSCTASGSAFKSYRMGWFRRTPGKEDEFVASISWTYGSTFYADSVKGRFTMSRDKAKNAGYLQMNSLKPEDTALYYCAAGAQSDRYNIRSYDYWGQGTQVTVSS
notes: Bivalent anti-VEGF VHH; also called VEGFBII23B04-40GS-86H09
Regarding B4, in [16], the “% inhibition, VEGF HUVEC proliferation assay” value is 96% and the “IC50, VEGF HUVEC proliferation assay” value was 0.38 nM. Besides, in experiment [3], the “% inhibition, VEGF HUVEC Erk phosphorylation assay” value turned out to be 94% and the “IC50, VEGF HUVEC Erk phosphorylation assay” value stood at 0.23 nM. For the same molecule, the half-maximal effective concentration (EC50) in [4] was determined as 0.32 nM. Besides, the concentration giving a half-maximal response (EC50) in experiment [5] was determined as 0.325 nM. In experiment [6], the “% inhibition” value was 100% and the half-maximal inhibitory concentration (IC50) is 0.292 nM. In addition, in experiment [17], the “% inhibition” value is 92% and the IC50 stood at 0.326 nM. In [7], the “% inhibition” value was determined as 100% and the 50% inhibitory concentration (IC50) stood at 0.046 nM. For the same molecule, in [8], the IC50 turned out to be 0.012 nM. Further, in experiment [9], the “% inhibition” value is 100% and the 50% inhibitory concentration (IC50) was determined as 0.05 nM. Further, in experiment [10], the “% inhibition” value was 98% and the IC50 came to 0.069 nM. In [11], the Kd was 0.47 nM, the ka1 was determined as 300000 M⁻¹ s⁻¹, the ka2 was found to be 0.026 s⁻¹ and the kd1 came out at 0.013 s⁻¹. Besides, in experiment [11], the kd2 is 0.00028 s⁻¹. For the same molecule, the binding result in experiment [12] is recorded as “binds”.

B5: VEGFBII010 (VHH, not shown: small tags and cut ends)
chain: EVQLVESGGGLVQTGDSLRLSCEVSGRTFSSYSMGWFRQAQGKEREFVVAISKGGYKYDSVSLEGRFTISKDNAKNTVYLQINSLKPEDTAVYYCASSRAYGSSRLRLADTYEYWGQGTQVTVSSGGGGSGGGGSGGGGSGGGGSGGGGSGGGGSGGGGSEVQLVESGGGLVQTGDSLRLSCEVSGRTFSSYSMGWFRQAQGKEREFVVAISKGGYKYDSVSLEGRFTISKDNAKNTVYLQINSLKPEDTAVYYCASSRAYGSSRLRLADTYEYWGQGTQVTVSS
notes: Homodimeric bivalent anti-VEGF VHH; also called VEGFBII23B04-35GS-23B04
In the case of B5, in experiment [16], the “% inhibition, VEGF HUVEC proliferation assay” value is 95% and the “IC50, VEGF HUVEC proliferation assay” value amounted to 0.22 nM. Also, in experiment [3], the “% inhibition, VEGF HUVEC Erk phosphorylation assay” value was 92% and the “IC50, VEGF HUVEC Erk phosphorylation assay” value is 0.19 nM. Besides, the EC50 in [4] came to 0.428 nM. The EC50 in experiment [5] came to 0.92 nM. In experiment [6], the “% inhibition” value is 100% and the IC50 turned out to be 0.049 nM. Further, in [17], the “% inhibition” value was 67% and the IC50 is 0.0735 nM. Also, in experiment [9], the “% inhibition” value was determined as 100% and the IC50 came to 0.016 nM. In addition, in [10], the “% inhibition” value came out at 70% and the 50% inhibitory concentration (IC50) was 0.021 nM. In addition, in [11], the equilibrium dissociation constant (Kd) is 0.16 nM, the ka1 came to 450000 M⁻¹ s⁻¹, the ka2 is 0.029 s⁻¹ and the kd1 was 0.017 s⁻¹. For the same molecule, in experiment [11], the kd2 is 0.00013 s⁻¹. For the same molecule, the binding result in experiment [12] is reported as “binds”.

B6: VEGFDLLBII002 (bispecific antibody)
chain: EVQLVESGGGLVQTGDSLRLSCEVSGRTFSSYSMGWFRQAQGKEREFVVAISKGGYKYDSVSLEGRFTISKDNAKNTVYLQINSLKPEDTAVYYCASSRAYGSSRLRLADTYEYWGQGTQVTVSSGGGGSGGGGSGGGGCGGGGSGGGGSGGGGSGGGGSEVQLVESGGGLVQAGGSLRLSCAASGRTFSSYAMAWFRQAPGKEREFVAAIRWSGGTAYYADSVQGRFTISRDNAKNTVYLQMNSLKPEDTAVYYCANRAADTRLGPYEYDYWGQGTQVTVSS
modifications: PEGylated at the Cys at position 15 of the 35 Gly-Ser linker
notes: VEGFBII23B04 - 35GS(Cys15) - DLLBII101G08
As to B6, the 50% inhibitory concentration (IC50) in experiment [1] was 106 nM; in experiment [2], 120 nM; in [13] it was 0.36 nM; in [14], 0.2 nM; in [15], 0.24 nM. The “% inh” value in experiment [13] amounted to 64%; in experiment [14] it was 100%; in experiment [15], 100%.

The term IC50 denotes the concentration at which inhibition is half-maximal. Broadly, the EC50 is the concentration needed to bring the measured effect to its halfway point. As usually defined, the % inhibition is the relative decrease from the control value, in per cent. Usually Kd stands for the equilibrium constant for the complex coming apart.

(Values after US20140120095A1 (Boehringer Ingelheim, published 2014).)
